These results are taken from IntAct's records for PubMed 20371544.

Sequences and labels used below:
B1: Muscle, skeletal receptor tyrosine-protein kinase (Mus musculus), Q61006 (parent)
chain: MRELVNIPLLQMLTLVAFSGTEKLPKAPVITTPLETVDALVEEVATFMCAVESYPQPEISWTRNKILIKLFDTRYSIRENGQLLTILSVEDSDDGIYCCIANNGVGGAVESCGALQVKMKPKITRPPINVKIIEGLKAVLPCTTMGNPKPSVSWIKGDNALRENSRIAVLESGSLRIHNVQKEDAGQYRCVAKNSLGTAYSKLVKLEVEVFARILRAPESHNVTFGSFVTLRCTAIGIPVPTISWIENGNAVSSGSIQESVKDRVIDSRLQLFITKPGLYTCIATNKHGEKFSTAKAAATVSIAEWSKSQKDSQGYCAQYRGEVCDAVLAKDALVFFNTSYRDPEDAQELLIHTAWNELKAVSPLCRPAAEALLCNHLFQECSPGVVPTPMPICREYCLAVKELFCAKEWQAMEGKAHRGLYRSGMHLLPVPECSKLPSMHRDPTACTRLPYLDYKKENITTFPSITSSRPSADIPNLPASTSSFAVSPAYSMTVIISIVSSFALFALLTIATLYCCRRRKEWKNKKRESTAVTLTTLPSELLLDRLHPNPMYQRMPLLLNPKLLSLEYPRNNIEYVRDIGEGAFGRVFQARAPGLLPYEPFTMVAVKMLKEEASADMQADFQREAALMAEFDNPNIVKLLGVCAVGKPMCLLFEYMAYGDLNEFLRSMSPHTVCSLSHSDLSTRARVSSPGPPPLSCAEQLCIARQVAAGMAYLSERKFVHRDLATRNCLVGETMVVKIADFGLSRNIYSADYYKADGNDAIPIRWMPPESIFYNRYTTESDVWAYGVVLWEIFSYGLQPYYGMAHEEVIYYVRDGNILACPENCPLELYNLMRLCWSKLPADRPSFCSIHRILQRMCERAEGTVGV
partner: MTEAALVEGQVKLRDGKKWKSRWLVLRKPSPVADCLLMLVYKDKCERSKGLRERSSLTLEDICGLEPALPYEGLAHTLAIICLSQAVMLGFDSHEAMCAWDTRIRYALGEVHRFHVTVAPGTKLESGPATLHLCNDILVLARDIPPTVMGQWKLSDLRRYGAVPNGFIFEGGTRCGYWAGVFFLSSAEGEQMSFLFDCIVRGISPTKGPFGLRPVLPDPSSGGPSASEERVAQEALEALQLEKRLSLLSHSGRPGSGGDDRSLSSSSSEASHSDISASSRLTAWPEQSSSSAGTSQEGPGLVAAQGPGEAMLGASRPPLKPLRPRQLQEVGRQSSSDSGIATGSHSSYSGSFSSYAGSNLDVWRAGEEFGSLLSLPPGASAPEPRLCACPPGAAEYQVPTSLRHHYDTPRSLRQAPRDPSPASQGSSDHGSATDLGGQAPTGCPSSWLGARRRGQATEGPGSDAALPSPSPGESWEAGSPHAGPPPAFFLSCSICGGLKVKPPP

The variants in the assay derive from B1. Particulars: with dok7_mouse Dok7, Q18PE0.
Turning to M604I, the “effect of a mutation on the interaction” value is “decreasing interaction”.

For the variant A726V, the “effect of a mutation on the interaction” value is “disrupting interaction”.
